A short description of the series: yeast display, Sf9 membrane polyspecificity reagent, FACS + sequencing; frameworks hold sequencing errors. In short, it runs like this: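 Galactose induction of a Saccharomyces cerevisiae BJ5465 synthetic nanobody display library ran 36–48 hours. The cells were then stained for 1 hour at 4 °C with 10% biotinylated, detergent-solubilized Sf9 membrane reagent, pulled down on streptavidin microbeads and FACS-sorted into low and high (top ~1%) gates on expression and reagent-binding fluorescence. Labels for polyreactivity follow the gate of origin.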
Regarding “QVQLVESGGCLVQAGGRLRLSCAASGIIFYLYAMAWYRQARGKVWELVATISRRGGSTYYADSVKGRFTISRDNAKNTVYLQMNSLKPDDTAVYYCATGHFSVGRSFSSGSYEYWGQGTQVTVSS”, the “polyreactivity (PSR sort gate)” value was “high polyreactivity”.
In the case of “QVQLVESGGCLVQAGGRLRLSCAASGLTLYKNGMGWYRQAPGKERELVAVISRSGGRTYYADSVKGRFTISRDNAKNTVFLHMNSLKPEDTAVYYCAALQYGPRYTYYYWGQGTQVTVSS” it was “high polyreactivity”.
As for “QVQLVESGGCLVQAGGRLRLSCAASVRTFRSYAMGWYRQAPGKERELVAAISWSGGSTYYADSVKGRFTISRDNAKNTVYLQMTSLKPEDTAGYYCAAEVYYTYVYILDYWGQGTQVTVSS”, the “polyreactivity (PSR sort gate)” value is given as “high polyreactivity”.
With “QVQLVESGGCLVQAGGRLRLSSAASGRTIGWNAMGWYRQAPGTEREFVAAITISGGDTYYADSVKGRFTISRDNAKNNVYFQMNSLKPEDTAVYYCAATSTWRPSFEMDYWGQGTQVTGSS” the entry was “low polyreactivity”.
In the case of “QVQLVESGGCLVQAGGSLRFICAASGRIFDDNAMGWYRPAPGKERELVATISSTGGRTYYADSLKGRFTISRDNAKNNVYLQMNSLKPEDTAVYYCAARRRQGGYYYWGQGTQVTVSS” it was “high polyreactivity”; in that of “QVQLVESGGCLVQAGGSLRISCAASGRIFSRNAMGWYRQAPGKEREWVAAITRSSGTTYYADSVKGRFTISRDNAKNTVYLQMNSLKPEDTAVYYCAAGHTYGGYPRPSDYWGQGTQVTVSS”, “low polyreactivity”.
With “QVQLVESGGCLVQAGGSLRLICAASGSIFDINAMGWYSQAPGKERELVADIRRGDSTNYADSVKGRFTISRDNAKNTVYLQMNSLKPEDTAVYYCAARWRRSIYGFYPQRPYDYWGQGTQVTVSS” the entry was “high polyreactivity”; with “QVQLVESGGCLVQAGGSLRLRCAASGSSFAYNDMGWDRQAPGKDRELVATIRNGGSTYYADSVKGRFTISRDNAKNTVYLQRNSLKPEDTAVYYCAAVPLWDYKFCYYLLYDYWGQGTQVNVSS”, “low polyreactivity”; with “QVQLVESGGCLVQAGGSLRLSCAASGCTFVSNAMGWSRQAPGKERELVAAINGSGGITYYADSVKGRFTISRDNAKNTVYFQMNSLKPEDTAVYYCAAEVLYWRGYYNYWGQGTQVTVSS”, “low polyreactivity”.
On to “QVQLVESGGCLVQAGGSLRLSCAASGFIFAKYAMGWYRQAPGKEREFVAAISFSGASTYYADSVKGRFTISRDNAKNTVYLQMNSLKPEDTAVYYCAAYWDAEGRRYTRLEYWGQGTQVTVSS”, for which the “polyreactivity (PSR sort gate)” value was “low polyreactivity”.
With “QVQLVESGGCLVQAGGSLRLSCAASGFIFGYYAMGWYRPPPGKESELVAAISWSGVSTYYADSVKGRFTISRDNAKNTVYLQMNSLKPEDTAVYYCAVGYVLTGVFQARFDYWGQGTQATVSS” the entry was “high polyreactivity”; with “QVQLVESGGCLVQAGGSLRLSCAASGFTFPNAMGWYIQAPGKERELDATISSSGGSTYYADSVKGRFTISRDNAKNTVYLQMNSLKPEDTAVFYCAARTRQYLIYRAYRYDYWGQGTQVTVSS”, “low polyreactivity”.
As to “QVQLVESGGCLVQAGGSLRLSCAASGFTFQKYAMGWYRQAPGKERELVAAISWSGSSTYYADSVKGRFTISRDNAKNTVYLQMNSLKPEDTAFYYCAADSYYIQERDYWGQGTQVTVSS”, the “polyreactivity (PSR sort gate)” value is “high polyreactivity”.
For “QVQLVESGGCLVQAGGSLRLSCAASGFTFRYYAMGWYRQAPGKERELVAGITSGSRTNYADSVKGRFTISRDNAKNTVYLQMNSLKPEDSAVYYCAARIYNYQSWYDYWGQGTQVTVSS”, the “polyreactivity (PSR sort gate)” value was “high polyreactivity”.
With “QVQLVESGGCLVQAGGSLRLSCAASGFTFRYYAMGWYRQAPGKERELVASITGHGGSTYYADSVKGRFTISRDNAKNTVYLQMKSLKPEDTAVYYCNARVRGYYEYNYWGQGTQVTVST” the entry was “high polyreactivity”.
With “QVQLVESGGCLVQAGGSLRLSCAASGFTFYRSVMGWYRQAPGKERELVAAITSDGGSTYYAVSVKGRFTISRDNGKNTVYLQMNSLKPEDTAVYYCSADASTWYTEEYWGQGNQVTVSS” the entry was “low polyreactivity”; with “QVQLVESGGCLVQAGGSLRLSCAASGIIFYTYAMGWYRQAPGKEREFVAGIRWSGSSTYYADSVKGRFTISRDNAKNTVYLQMNSLKPEDTAVYYCATGQPYGPLYSLGYGYWGQGTQVTVSS”, “high polyreactivity”; with “QVQLVESGGCLVQAGGSLRLSCAASGITFRSYTMGWYRQAPGQESELVAAISYSAGSTYYADSVKGRFTISRDNAKNTVYLQMNSLKPEDTAVYYCAARPRLVVLVIRFYYWGQGTQVTVSS”, “high polyreactivity”.
With “QVQLVESGGCLVQAGGSLRLSCAASGITFVGNAMGCYRQAPVKERELVAGIRGNGGSTYYADSVKGRFTISRDYAKNTVYLQMNSLKPEDTAVYYCAAAAYYADFDYWGQGTQVTVSS” the entry was “low polyreactivity”; with “QVQLVESGGCLVQAGGSLRLSCAASGLIFPSYAMGWYRQAPGKERELVAAITFSGSDTNYADSVKGRFTISRDNAKNTVYLQLYSLIPEDTAVYYCAAAYFDFWGWLHDYWGQGTQVTVSS”, “low polyreactivity”.
Take “QVQLVESGGCLVQAGGSLRLSCAASGLIFRGYAMGWYRQAPGKERELVATITGGGRTNYADSVKGRFTLSRDNAKNTVYLQMNSLKPEDTAVYYCNTGYYGRLRDDYWGQGTQVTVSS”: the “polyreactivity (PSR sort gate)” value is given as “high polyreactivity”.
With “QVQLVESGGCLVQAGGSLRLSCAASGLIFYGYAMGWYRQAPGKERELVAAITSGGSTNYADSVKGRFTISRDNAKNTVYLQMNSLKPEDTSFYYCNADVIYYYRAYPVYEYDYWGQGTQVTVSS” the entry was “low polyreactivity”; with “QVQLVESGGCLVQAGGSLRLSCAASGRIFSGYVMGWYRQAPGKERELVAGITYRDGSTYYADSVKGRFTISRDKEKNTVYLQMNSLKPEDTAVYYCNADDYNDIPYDYWGQGTHVTVSS”, “low polyreactivity”; with “QVQLVESGGCLVQAGGSLRLSCAASGRTFGRNAMGWYRKAPGKERDLVAAISRSGASTYYADSVKGRFTISRDNAKITVYLQMNSLKEEDTAVYYCAKDVWGSRYAYDYWGQGTQVTVSS”, “low polyreactivity”.
Take “QVQLVESGGCLVQAGGSLRLSCAASGRTFSSNALGWYRHAPGKERELVAAITTTGGRTYYADSVKGRFTISRDNAKNTVYLQMNSLKPEDTAVYYCAARRRYGYDFWGHGTQVTVSS”: the “polyreactivity (PSR sort gate)” value is “high polyreactivity”.
Regarding “QVQLVESGGCLVQAGGSLRLSCAASGRTFVNNAMGWYRQAPGKYRELVAAITRSGGLTYSADSVKGRFTISRDHAKNTVYLQMTMLKPEYTAVYDCATAIVRLRHDDDWGQGTQVTVSS”, the “polyreactivity (PSR sort gate)” value is given as “high polyreactivity”.
In the case of “QVQLVESGGCLVQAGGSLRLSCAASGRTFYTYAMGWYRQAPGQERELVAAITYRGGNTYYADSVKGRFTISRDNAKNTVYLQMNSLKREDTAVYYCAATYKRRSGQSFDYWGQGTQVTVSS” it was “high polyreactivity”; in that of “QVQLVESGGCLVQAGGSLRLSCAASGSIFERNVMGWYRHAPGKERELVAAITSGGSTNYADSVKGRFTISRDNAKNTVYLQMNSLKPEETAVYYCAADVPYRSRFYRYRLSGGDYWGQGTQVTVSS”, “low polyreactivity”.
In the case of “QVQLVESGGCLVQAGGSLRLSCAASGSIFLYNAMGWYRQAPGKERELVAAIPYSGGRTYYADSVKGRFTISRDNAKNTVSFQMNSLKPEDTAFYYCAVKSFSGHGDYWGQGTQVTVSS” it was “low polyreactivity”; in that of “QVQLVESGGCLVQAGGSLRLSCAASGSIFPGYAMGWYRQATGKERELVAAISTSGGSTYADSVKGRFTISRDNAKNTVYLQMNSLKPEDTAVYYCAATYTYTSPVYYYLDGPWPYDYWGQGTQVTVSS”, “low polyreactivity”.
With “QVQLVESGGCLVQAGGSLRLSCAASGSIFRYYAMGWNRQAPGKERELVAAISSSGDNTYYADSVKGRFTISRDNAKNTVYLQMNSLKPEDTAVYYCAVRGERRYIYDYWGQGSQVTVSS” the entry was “high polyreactivity”; with “QVQLVESGGCLVQAGGSLRLSCAASGSIFSAYAMGWYRQAPGKERELVAGITSSGDSTYYADSVKGRFTISRDKAKNTVYLQMNSLKPEDTAVYYCNRVLGGVPFDHWGQGTQVTVSS”, “low polyreactivity”; with “QVQLVESGGCLVQAGGSLRLSCAASGSIFYRNAMGWYRQAPGKERELVAAISSDGSTNYADSVKGRFTISRDNAKNTVYLQMNSLKPEDTAVYYCAAPWTQILDYWGQGTQVTVSS”, “low polyreactivity”.
“QVQLVESGGCLVQAGGSLRLSCAASGSINRSYAMAWYRQAPGKDWELVASISRRGGSTYYADSVKGRFTISRDNAKNSVYLQMNRLKPEDSAVYYCAAVRYNSRVSTTPSEMYYWGQGTQVTVSS”: the “polyreactivity (PSR sort gate)” value was “low polyreactivity”.
With “QVQLVESGGCLVQAGGSLRLSCAASGSISYSYSMGWYRQAPGKERELVATISWGGGRTYYADSVKGRFTISRDNAKNTVYLQMNSLKPEDTAVYYFATAYRFRYGFAKRYDYWGQGTQVTVSS”, the “polyreactivity (PSR sort gate)” value is “low polyreactivity”.
With “QVQLVESGGCLVQAGGSLRLSCAASGSIYGYTMGWYRQAPGKERELVAAINRRADRTYYADSVKGRFTISRDNAKNTVYLQMNSLKPEDTAVYYCATLQGDSSSQYDYWGHGTQVTVSS” the entry was “high polyreactivity”; with “QVQLVESGGCLVQAGGSLRLSCAASGSTFRHYAMGWYRQQPGKERELVASISKSAGRTYYADSVKGRFTISRDIAKNTVNLQMNSLKPEDTAVYYCAAYRIHVYPAGLAWQYYYELDYWGQGTQLTVSS”, “high polyreactivity”; with “QVQLVESGGCLVQAGGSLRLSCAASGSTFTSNAMGWYRQAAGKEWQFVAAISFGGGITYDADSVKGRFTISRDNAKNTVSLQMNSLKPEDTAVYYCAADGEYPHSEDFEYWGQGTQGTVSS”, “low polyreactivity”.
With “QVQLVESGGCLVQAGGSLRLSCAASRFTFTYYAMGWYRHAPGKESELVAAITRRGGRTYYAYSVKGRFTISRDNAKNTVYLQMNSLKPEDTAVYYCNADEYGGSTGRKGRYNYWGQGTQVTVSS” the entry was “low polyreactivity”; with “QVQLVESGGCLVQAGGSLRLSCAPSGSIFKVYAKGWYRQAPGKVRELVAAITNGGSTYADSVKGRFTMSRDNAKYTVYLQMNSLKPEDTAVYYCDSDYRGHSGSWYDYWGQGTQVTVSS”, “low polyreactivity”.

For the origin of these results see the nanobody polyreactivity screen of Harvey et al. (2022).
